Test results as given in US6458930B1, “Aspergillus fumigatus cofilin” (Cytokinetics, Inc., priority 2000, dated 2002).

Molecular target: T1, preassembled pyrene-actin filaments (Gallus gallus, UniProt P68139)
T1 construct: Extract chicken breast acetone powder (as prepared above) in Buffer A; from tissue; host or cells: chicken breast muscle (actin); E. coli (cofilin, made in house)
Assay: pyrene actin assay (fluorescence of preassembled pyrene-actin filaments)
Format: biochemical, chicken
Details: addition of stoichiometric amounts of cofilin to preassembled pyrene-actin filaments; binding to actin polymer and enhancing depolymerization combined
Source text: Assays for the interaction of A. fumigatus cofilin and any other cofilin with actin in 384-well plates using a fluorescence as the detection means have been developed. The assays employ pyrene-labeled actin (Pollard (1984) J Cell Biol 99:769-777).
Upon addition of cofilin to filamentous pyrene-actin, two well-characterized biochemical activities can be monitored. First, cofilin binds to the filaments and partially quenches the pyrene fluorescence. Second, it induces filament disassembly, further decreasing pyrene fluorescence. The decrease in fluorescence that results when cofilin is added to filamentous actin is monitored (FIG. 3). An inhibitor of the interaction of cofilin with pyrene-actin will result in an increase in fluorescence.
This very robust signal can be exploited to an assay for modulators of cofilin. Chicken skeletal actin was used because it can be purified in quantities needed for high throughput screening; it is 90% identical in amino acid sequence to fungal actin, and it can assemble into copolymers with fungal actin. Pyrene-labeled skeletal actin has been prepared and characterized as to its polymerization properties as well as for its interaction with fungal cofilin.

B1: A. fumigatus cofilin: protein of A. fumigatus capable of binding actin, amino acid sequence SEQ ID NO:2, expressed in E. coli (protein, listed as Aspergillus fumigatus)
chain: MALASGVSIADECITAFNDFRMSGNKANKTKFIIFKIADNKKEVVIDEVSQEEDYEVFRSRLEATKDSKGNPAPRYAVYDVEYDLGGGEGKRSKIVFISWVPSDTPTLWSMIYASTRENLKNALNIHTSIHADDKGDIEWKTVLAEASGGKAGK
reduction in fluorescence intensity: 3-5 fold
